Experimental data: the supplement of paper PMC7125110
± gives the standard error. For some of these results: This sample holds only a part of the variants without activity.

B1: glmS ribozyme (parent)
chain: AUAAAAGCGCCAGAACUACAGAAAUGUAGUUGACGAGGAGGAGGUUUAUCGAAUUUUCGGCGGAUGCCUCCAAA

Experiments:
Details in all cases: with glucosamine-6-phosphate
glucosamine-6-phosphate [1] = variants of: B1; test: kcat; higher = faster cleavage; RNA array
Method in brief: (§1)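 Weighted Michaelis–Menten fits across concentrations supplied kcat and KM, based on kobs from one- or two-exponential decay fits to normalised per-tile medians. The data came from barcoded ribozyme variants transcribed in situ by E. coli RNA polymerase on sequenced MiSeq chips and tracked at 37 °C by a hybridised Cy3 probe. Glucosamine-6-phosphate (40 μM to 10 mM) in HEPES/KCl/Mg(OAc)2 buffer was flowed in.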

glucosamine-6-phosphate [2] = variants of: B1; test: KM; higher = weaker cofactor use; RNA array
Method in brief: as §1

glucosamine-6-phosphate [3] = variants of: B1; test: self-cleavage kobs at 160 uM GlcN6P; higher = faster cleavage; RNA array
Method in brief: as §1

glucosamine-6-phosphate [4] = variants of: B1; test: self-cleavage kobs at 640 uM GlcN6P; higher = faster cleavage; RNA array
Method in brief: as §1

glucosamine-6-phosphate [5] = variants of: B1; test: self-cleavage kobs at 2500 uM GlcN6P; higher = faster cleavage; RNA array
Method in brief: as §1

glucosamine-6-phosphate [6] = variants of: B1; test: self-cleavage kobs at 10000 uM GlcN6P; higher = faster cleavage; RNA array
Method in brief: as §1

glucosamine-6-phosphate [7] = variants of: B1; test: self-cleavage kobs at 40 uM GlcN6P; higher = faster cleavage; RNA array
Method in brief: as §1

Variant | kcat (glucosamine-6-phosphate [1]) | KM (glucosamine-6-phosphate [2]) | self-cleavage kobs at 160 uM GlcN6P (glucosamine-6-phosphate [3]) | self-cleavage kobs at 640 uM GlcN6P (glucosamine-6-phosphate [4]) | self-cleavage kobs at 2500 uM GlcN6P (glucosamine-6-phosphate [5]) | self-cleavage kobs at 10000 uM GlcN6P (glucosamine-6-phosphate [6]) | self-cleavage kobs at 40 uM GlcN6P (glucosamine-6-phosphate [7])
A15C G40C | 0.000353 ± 6.6e-05 s⁻¹ | 1230 ± 420 µM | 5.62e-05 ± 7.5e-06 s⁻¹ | 0.000109 ± 9.3e-06 s⁻¹ | 0.000234 ± 2.4e-05 s⁻¹ | 0.000343 ± 3.9e-05 s⁻¹ | 
A15U C71G | 0.000329 ± 9.4e-05 s⁻¹ |  | 4.2e-05 ± 8.4e-06 s⁻¹ | 9.25e-05 ± 9.6e-06 s⁻¹ | 0.000157 ± 2.3e-05 s⁻¹ | 0.000359 ± 4.3e-05 s⁻¹ | 
G29U G41A | 0.000207 ± 3.7e-05 s⁻¹ | 1480 ± 620 µM |  | 5.62e-05 ± 1.8e-05 s⁻¹ | 0.000155 ± 3.1e-05 s⁻¹ | 0.000164 ± 4e-05 s⁻¹ | < 1e-05 s⁻¹
A14U A42G | 0.0156 ± 0.0054 s⁻¹ | 2710 ± 1300 µM | 0.00064 ± 0.00015 s⁻¹ | 0.00347 ± 0.00055 s⁻¹ | 0.00517 ± 0.001 s⁻¹ | 0.0147 ± 0.0018 s⁻¹ | 0.000273 ± 3.1e-05 s⁻¹
C16G U45C | 0.0003 ± 7.1e-05 s⁻¹ |  |  | 7.2e-05 ± 2.1e-05 s⁻¹ | 0.000367 ± 9.7e-05 s⁻¹ | 0.000243 ± 3.7e-05 s⁻¹ | 
A15U G32U | 0.00104 ± 0.0003 s⁻¹ | 6790 ± 2800 µM |  | 0.000103 ± 1.2e-05 s⁻¹ | 0.000266 ± 2.9e-05 s⁻¹ | 0.000628 ± 6.4e-05 s⁻¹ | 
C16A U47G | 0.000198 ± 3e-05 s⁻¹ | 631 ± 230 µM | 6.15e-05 ± 1.2e-05 s⁻¹ | 9.31e-05 ± 7.8e-06 s⁻¹ | 0.000184 ± 2.7e-05 s⁻¹ | 0.000186 ± 2.3e-05 s⁻¹ | 
G29A U56A | 0.00321 ± 0.0012 s⁻¹ |  | 0.000108 ± 2.2e-05 s⁻¹ | 0.000389 ± 7.9e-05 s⁻¹ | 0.000941 ± 0.00015 s⁻¹ | 0.00255 ± 0.00036 s⁻¹ | 4.94e-05 ± 9.7e-06 s⁻¹
A15G A33C | 0.000368 ± 3.1e-05 s⁻¹ | 2210 ± 330 µM |  | 8.06e-05 ± 9.8e-06 s⁻¹ | 0.000213 ± 3e-05 s⁻¹ | 0.00029 ± 4.2e-05 s⁻¹ | 
A15G A33U | 0.0001 ± 9.2e-06 s⁻¹ | 2530 ± 740 µM |  |  | 5.25e-05 ± 7e-06 s⁻¹ | 7.91e-05 ± 6.4e-06 s⁻¹ | < 1e-05 s⁻¹
A14G U47C | 0.00925 ± 0.0028 s⁻¹ | 1160 ± 520 µM | 0.00182 ± 0.00041 s⁻¹ | 0.00236 ± 0.00055 s⁻¹ | 0.0109 ± 0.0027 s⁻¹ | 0.00833 ± 0.0014 s⁻¹ | 0.000316 ± 5.1e-05 s⁻¹
A15C U54A | 0.00654 ± 0.0017 s⁻¹ | 1930 ± 730 µM | 0.000559 ± 0.00011 s⁻¹ | 0.0012 ± 0.00025 s⁻¹ | 0.00329 ± 0.00066 s⁻¹ | 0.00638 ± 0.00097 s⁻¹ | 0.000164 ± 2.4e-05 s⁻¹
A14U G29U | 0.000435 ± 4.6e-05 s⁻¹ | 2040 ± 400 µM | 3.57e-05 ± 7.2e-06 s⁻¹ | 0.000104 ± 9.7e-06 s⁻¹ | 0.000222 ± 2e-05 s⁻¹ | 0.000381 ± 3.2e-05 s⁻¹ | 2.02e-05 ± 9.5e-06 s⁻¹
